# Reference: the DeepSol protein solubility set
# Assay: soluble on expression in E. coli; label from the status in PepcDB or PDB records
row,Sequence,soluble on expression in E. coli
1,MPTNNAPQVAINDIGSAEDFLAAIDATIKYFNDGDIVEGTVVKVDRDEVLLDIGYKTEGVIPSRELSIKHDVDPDEVVEVGDQIDALVLTKEDKEGRLILSKKRAQYERAWGAIEELKEKDEPVTGTVIEVVKGGLIIDIGLRGFLPASLVEMRRVRDLDPYIGQELEAKIIELDKNRNNVVLSRRAFLEQTQSEVRSEFLHQLQKGQVRKGVVSSIVNFGAFVDLGGVDGLVHVSELSWKHIDHPSEVVTVGDEVTVEVLEVDLDRERVSLSLKATQEDPWRVFARTHAVGQIVPGKVTKLVPFGAFVRVEEGIEGLVHISELAQRHVEVPDQVVAVGEEVMVKVIDIDLERRRISLSLKQADEDYTEEFDPSKYGMADSYDEQGNYIFPEGFDAETNEWLEGFDEQRQAWEARYAESERRFTAHTAQIERRRQQAEEAAAEAPAGNYSTDSAEDAPAAEAVEESAGSLASDEQLAALREKLAGNLEHHHHHH,soluble
2,MKQVSRSALVSFSAEQMFNLVNDVAKYPEFLPGCSGSRIIESSGNGMVASVDVAKAGISKTFTTSNELIPGQAIMMNLVDGPFKTLRGGWIFTALDEQACKVELKLEFEFSSKMIEMAFGKIFNELTSNMVNAFTKRAKQVYECYEYLEHHHHHH,not soluble
3,MSKKLKPFEILEDSCASVCIWLNGEPTAISNRAENLWNKAKYRVATDGAVNEILKRKSFVEWPHIICGDFDSINKQIDTKNAKVVHLPDQDYTDLSKSVQWCLEQKTLTSWEFENIVVLGGLNGRFDHTMSTLSSLIRFVDSQTPVIVLDSRNLVLAVPTGDSNLDVNLEMTTKMCGIIPIVQKETIKTLLLNLENLSARRMKLPRAKYF,not soluble
4,QVQLVESGGGTVPAGGSLRLSCAASGNTLCTYDMSWYRRAPGKGRDFVSGIDNDGTTTYVDSVAGRFTISQGNAKNTAYLQMDSLKPDDTAMYYCKPSLRYGLPGCPIIPWGQGTQVTVSS,soluble
5,GMVVNESMYQLGSVRSAIRELFEYGKKRAAIVGKENVYDFSIGNPSIPAPQIVNDTIKELVTDYDSVALHGYTSAQGDVETRAAIAEFLNNTHGTHFNADNLYMTMGAAASLSICFRALTSDAYDEFITIAPYFPEYKVFVNAAGARLVEVPADTEHFQIDFDALEERINAHTRGVIINSPNNPSGTVYSEETIKKLSDLLEKKSKEIGRPIFIIADEPYREIVYDGIKVPFVTKYYDNTLVCYSYSKSLSLPGERIGYVLVPDEVYDKAELYAAVCGAGRALGYVCAPSLFQKMIVKCQGATGDINAYKENRDLLYEGLTRIGYHCFKPDGAFYMFVKALEDDSNAFCEKAKEEDVLIVAADGFGCPGWVRISYCVDREMIKHSMPAFEKIYKKYNK,soluble
6,MKFCSLCGATVVQRIPDGDNRLRYVCDACHTVHYQNPRIVAGSLPVWDGQVLLCRRAIAPRLGYWTLPAGFMENGETLAQAAARETEEEANARIGDLQLYTLFDLPHISQVYLFFRAELLDLDFSAGDESLEVRLFDEAEIPWSELAFPTIGRTLECYFSDRREGCFPVRNEAIAPMLASYKKD,not soluble
7,MQNETRTLQLDPHLHIEAYRFKGIMQKFPNHFHDYYVIGFIEKGQRYLACQDQEYIINPGDLLLFNPRDTHSCEQIDGRTLDYRCINVMPDIMEKAVKEITGSGHLPYFSQHVLFRHELTASLQELHILISEEKQALRKEELFLHLLEELIRHYSDVTFLSSVPEPSDEVKMVCE,not soluble
8,MGSDKIHHHHHHMSDRKEDLERQINLTFAFLSANSYSRKFLTQVWIRDNVGDYKGLTDTAFRKKLQRDLAYLRRVGVPIEQFTVTSGIAEGQQAYRLAQDSYKLPEVEFTPDEAAVLGMAGEMGHNQELGAFARSGWTKLAAGGAQRDLSTSTALTNAGDLGSLSAKTLDAIIKARQLGKQISFEYRRAPKDAPSLRHMDPWGLVPERDRIYLVGFDLDRQEARTFRITRVRNINLGADATHPMPAGTNLQDMVRAQLRRKSVLIDATLRITPGRAVELRAAGVETSDGAWFLEDVDRDWLVRTAAAHAPEALVIEPKDVIDDVIALLRKVENEVV,not soluble
9,MLVNKVEICGVNTSKLPVLTNEQKKELFERMHKGDTSAREEFIKGNLRLVLSVIQRFNNRGEYVDDLFQVGCIGLIKAIDNFDVTQNVKFSTYAVPMIIGEIRRYLRDNNAIRVSRSLRDIAYKALQAKEKLTNQNSKEPTIEEIAKELGLPKEEVVFALDAIQDPISLFESVYHDGGDAIYVMDQVKDEKNNDENWLEGIALSEAMRKLNDREKLILNLRFFDGRTQMEVAEEIGISQAQVSRLEKTALMHMRKYI,not soluble
10,MSLKIKVGLIFSGIACLFLTACVNQVKQNTTFENTLTQKYCGDDFFNQNLEKIKKNDDVIYTGLNAGLIARNCGDFNKSNVFFDAVEESYKYDVDLENVSPKAAKFIGTTLLNDNIVDYDGSLYERIMVNIYKALNYMEEDDYENARVEFNRVLMRQDKAKEYFAKEIEKNRADLDKAKEDKNYDKNMNENSKVIEAQYDNLFKEFDTTKNFINPYATYLASIFFFMDKDYRKAADLFREVAIIYPKNKTIKKEAKIFKEYATKIKVKKAKKYVFVVYENGFGVVKDEFALTLPFIVDKKIISTNIALQTLKKREASFANLNINGQNTNDFVDLDNIVATEFKINMPAMIAKALAQTIIKTTLNVAVANNDSTGGWLSLATAVATAATNKADVRSWRGLPKSIAIATIENDGNLEIKDPQGNILFQKSLDKNKNALVIVRSFAPYLPASVAIMEKEGHHHHHH,not soluble
11,MGSDKIHHHHHHMSLILELKNISKHYPGVKALETVSLRLFSGEVHALLGENGAGKSTLVKVMTGAQSKDGGEIIFLNEKQHFNTPIEAQKIGISTVYQEVNLVPNLTVAQNLFLGHEPKRFGLIHFQKMYADARTVLTQFKLDIDVSAPLSSYSIAVQQLIAIARGVAMSAKVLVLDEPTASLDADEVQVLFGILNQLKQKGVAIVFITHFLDQVYQISDRITVLRNGRFIGEYLTSELPQPQLIEAMLGRSLQQHLVEKTSAEQTTNGTSAVLLSLEGVSVKGSIQSMNLTVPKGQAVGLAGLLGSGRSEVCNAVFGLDLLDSGSIHLAGKKLHLSHPVDAINAGIALCPEDRKVDGIIGPLSIRENIILALQARVGWWRCLSKTRQQEIAQFFIDKLQIATPDADKPIEQLSGGNQQKVILARWLAIEPILLVLDEPTRGIDIGAHAEIIKLIRTLCDDGMSLLVASSELDELVAFSNKVVVLRDRYAVRELSGSELTSQHVMQAIAEG,not soluble
12,MSHLALKDLFSGFFVIDDEEEVEVPDKQQQVNEAPAKEQSQQTTKQNAIKSVPQKSASRYTTTSEERNNRMSNYSKNNSRNVVTMNNATPNNASQESSKMCLFEPRVFSDTQDIADELKNRRATLVNLQRIDKVSAKRIIDFLSGTVYAIGGDIQRVGTDIFLCTPDNVEVAGSITDHIENMEHSFDLEHHHHHH,not soluble
13,MGCMKSKETFPFPTTLDIDKLHESEEAFIPDDSSQYRTPSPGEQQQVQEVKKLPEPGAVIGALILEFADRLASEIVEDALQQWACENIQYYNIPYIESEGSDTTIN,soluble
14,MKIVSKSSPLPLHYQLKMILQEMIENEELLPGDTIPTERELCEIQKISRMTVNKAILSLVSEGILYREQGKGTFVAKKKEKQQLTKLKSFTEEMREKGLNISTKILSFEIKTATKHISTLLELPHKKMKVIEIIRLRLTDNDPSAIETVVLPLYLFSDMTKEVIDGKSLYNTFREKYGYEPTKAKQTIEPIMLTDYEAKFLNQVGNSLALLFRRLTYRKDGVPIEYTKSIYRSEKYKYEVILT,not soluble
15,MAHHHHHHMLLRASASSTLRTRGASCCSGACTGLYGSGSLTVQQRFIEYWGSGVTGRTQPYAQGDMIPRVDNMRYPVNKATSAAASLTGNQSSIAYDTSSIFQVEGFSPLEKEHYQSLRGSTRHKVESLPPHIGKDVMVLLKNMSEEGLLEEHWWARVVKDFPSMKTPCTAEFKSAWEKFYTEASGVADDNEAVKAISRPFLQTQMQKNYIAYAMVWRVAERLCEAFDAVPHVTVYERRGGRLVVERVTKLMLDTIADEPWAHQETTSPLHVDISNFRAWHEAGYW,not soluble
16,MSLIIRLNFITKYKVDMKRSHLSLIACLLASTQAYALSTDREQPVYIDSDSQQLDMKSNRVTFLGDVKLKQGSININADKLIVIRNAENGKIEEIEGYGNVATFSQLTDEGKTLYGEAKELYYKVRDDELVMINKAMLSQDDSEIRGSKIRYKISLQKLIADSDGKGRVSTVLQPQAIQEEGHHHHHH,soluble
17,MTRTSKWTVHEAKSNPKYFTHNGNFGESPNHVKRGGYGKGNWGKPGDEINDLIDSGEIKTVFNKTRRGSNSQNNERRLSDLQQYHI,soluble
